This note sets out measurements from patent US20250011363A1, “OPTIMIZED SHORTENED PEPTIDE THAT BINDS TO ACETYLCHOLINE RECEPTOR, AND USE THEREOF” (SKINMED CO., LTD., priority 2021, published 2025).

The target of experiment [1] is acetylcholine receptor. Put plainly: SPR, AchR immobilized on chip.
Experiment [2] has as its target acetylcholine receptor on acetylcholine receptor-overexpressing TE671 cells. Put plainly: cell-based or functional assay.

Substance Synake (peptide) came in with a Binding affinity (RU) in experiment [1] of 14 RU. In experiment [2], the inhibition of acetylcholine receptors (calcium imaging with Fura-2-AM, TE671 cells, nicotine 400 uM) was 500 µM.
